Experimental data published in the Immune Epitope Database (IEDB).

Tests used:
[1] = molecular target: HLA-A*68:02; test: IEDB peptide-MHC binding, cellular MHC/competitive/fluorescence; ≥ and ≤ were set here for values at or beyond the usual limits of such assays
[2] = molecular target: HLA-A*02:02; test: as above
[3] = molecular target: HLA-A*68:02; test: IEDB peptide-MHC binding, purified MHC/competitive/radioactivity; ≥ and ≤ were set here for values at or beyond the usual limits of such assays
[4] = molecular target: HLA-A*02:06; test: as above
[5] = molecular target: HLA-A*02:03; test: as above
[6] = molecular target: HLA-A*02:01; test: IEDB peptide-MHC binding, cellular MHC/competitive/fluorescence; ≥ and ≤ were set here for values at or beyond the usual limits of such assays
[7] = molecular target: HLA-A*02:01; test: IEDB peptide-MHC binding, purified MHC/competitive/radioactivity; ≥ and ≤ were set here for values at or beyond the usual limits of such assays
[8] = molecular target: HLA-A*02:06; test: IEDB peptide-MHC binding, cellular MHC/competitive/fluorescence; ≥ and ≤ were set here for values at or beyond the usual limits of such assays; conditions: source organism: Vaccinia virus WR
[9] = source organism: Influenza A virus
[10] = source organism: Vaccinia virus WR
[11] = source organism: Mammarenavirus lassaense

| Sequence | IC50 [3, 10] [µM] | IC50 [4, 10] [µM] | IC50 [5, 10] [µM] | IC50 [2, 10] [µM] | IC50 [6, 10] [µM] | IC50 [7, 10] [µM] | IC50 [1, 10] [µM] | further results |
| --- | --- | --- | --- | --- | --- | --- | --- | --- |
| SLCPIRGWAI |  |  |  |  |  |  |  | IC50 [1, 9]: 16.2 µM; IC50 [2, 9]: 5.52 µM |
| DLTALLSCI | 1.78 | 4.88 | 0.996 | 5.2 | 13.5 |  |  |  |
| VQLPKRGVRV |  | 0.041 | 2.21 | 33.7 |  | 1.64 | 55.7 |  |
| NIKPVIVPDI |  | 0.945 | 0.745 | 10.3 | ≥ 70 |  | 9.46 |  |
| IVCSKTVKNV | 1.73 | 2.76 | 0.503 | 10.8 |  | 1.42 |  |  |
| VTLNRIKIA |  | 0.625 | 0.407 | 13.3 |  | 1.1 | 26.3 |  |
| DLLLPSTDV |  | 1.06 | 3.9 | 15.1 |  | 1.48 | 13.3 |  |
| NVMGMIGI |  |  |  |  |  |  |  | IC50 [3, 9]: 0.187 µM; IC50 [4, 9]: 2.06 µM; IC50 [5, 9]: 4.81 µM; IC50 [2, 9]: 5.92 µM; IC50 [6, 9]: 14.5 µM |
| VLEKKVCAI |  | 3.39 | 2.31 | 14.4 |  | 1.37 | 45.4 |  |
| GAAITLVVI |  | 2.95 | 3.28 | 6.45 |  | 1.08 | 7.26 |  |
| KLVETGFVI | 1.05 | 0.2 | 1.07 | 13.2 | 14.3 |  |  |  |
| VILKDPRIA |  | 0.318 | 0.603 | 10.6 |  | 0.697 | 37.9 |  |
| GALYLGHSA |  | 0.792 | 1.9 | 7.5 | 22.6 |  | 12.8 |  |
| ITRLEVIGL | 4.46 | 0.776 | 0.213 | 5.51 |  | 3.66 |  |  |
| MSIQLINKAV |  |  |  |  |  |  |  | IC50 [3, 11]: 0.011 µM; IC50 [4, 11]: 0.619 µM; IC50 [5, 11]: 1.8 µM; IC50 [2, 11]: 11.4 µM; IC50 [6, 11]: 7.21 µM |
| GLIVILFIM | 1.38 |  | 1.39 | 13.4 |  | 1.66 |  | IC50 [8]: 5.29 µM |
| RTIDAINKCV | 0.289 | 0.341 | 0.334 | 10.8 | 25 |  |  |  |

| Sequence | IC50 [3, 10] [µM] | IC50 [4, 10] [µM] | IC50 [5, 10] [µM] | IC50 [2, 10] [µM] | IC50 [6, 10] [µM] | IC50 [7, 10] [µM] | IC50 [1, 10] [µM] | further results |
| --- | --- | --- | --- | --- | --- | --- | --- | --- |
| ITPTIEDDKI | 2.19 | 1.5 | 4.2 | 18.7 | 18.8 |  |  |  |
| RTWKVLSIM | 4.13 |  | 2.63 | 19.1 |  | 0.84 |  | IC50 [8]: 33.9 µM |
| MAAAKTPVIV | 1.21 | 3.63 | 0.156 | 6.01 | 8.47 |  |  |  |
| AVIIMAINV | 1.24 | 0.065 | 2.76 | 9.07 |  | 0.963 |  |  |
| CVNGSCFTV |  |  |  |  |  |  |  | IC50 [3, 9]: 3.25 µM; IC50 [4, 9]: 1.99 µM; IC50 [5, 9]: 1.13 µM; IC50 [7, 9]: 3.95 µM; IC50 [2, 9]: 12.4 µM |
| NTITTFIPI | 0.0012 |  | 0.988 | 15.5 |  | 0.857 |  | IC50 [8]: 7.77 µM |
| NIYRLFTRCA | 0.25 | 0.023 | 0.138 | 9.89 |  | 0.81 |  |  |
| DISDVKVLAA | 4.98 | 4.61 | 2.2 | 33.8 | ≥ 70 |  |  |  |
| QQLCTMERT |  | 0.929 | 4.52 | ≥ 70 | 46.7 |  | ≥ 70 |  |
| FTDCRTIDA | 3.42 | 2.71 | 2.68 | 10.9 |  | 3.77 |  |  |
| TQVKELGIA |  | 0.056 | 0.052 | 7.22 | 12.4 |  | 23.4 |  |
| KTPLYYLSGT |  | 1.42 | 3.11 | 21.9 | 45 |  | 34.3 |  |
| EVIERINLLV | 0.02 | 0.3 | 3.33 | 19.7 |  | 2.69 |  |  |
| VAMLLTHGA |  | 0.726 | 0.628 | 7.16 | 8.93 |  | 9.47 |  |
| ITPNNLNKI |  | 0.409 | 0.876 | 14.6 | 33.5 |  | 13.4 |  |
| YLVQQESSFV |  |  |  |  |  |  |  | IC50 ([3]; source organism: SARS-CoV1): 3.41 µM; IC50 ([4]; source organism: SARS-CoV1): 0.386 µM; IC50 ([5]; source organism: SARS-CoV1): 0.017 µM; IC50 ([7]; source organism: SARS-CoV1): 0.076 µM; IC50 ([2]; source organism: SARS-CoV1): 12.7 µM |
| QVKELGIAI |  | 3.71 | 0.882 | 9.05 | 10.7 |  | 7.56 |  |
